Measured values from patent US20200347143A1 (GLENMARK PHARMACEUTICALS S A, published 2020).

B5: OX40-CRD-Avi-his (receptor)
chain: LHCVGDTYPSNDRCCHECRPGNGMVSRCSRSQNTVCRPCGPGFYNDVVSSKPCKPCTWCNLRSGSERKQLCTATQDTVCRCRAGTQPLDSYKPGVDCAPCPPGHFSPGDNQACKPWTNCTLAGKHTLQPASNSSDAICEDRDGLNDIFEAQKIEWHEHHHHHH
notes: limits of the construct not described

Columns and labels:
[1] = target: T1, recombinant GITR molecule (R&D) (UniProt Q9Y5U5 26-161); assay: direct ELISA on coated recombinant GITR, detection streptavidin-HRP, absorbance 450 nm [panel GITR]
T1 sequence (looked up): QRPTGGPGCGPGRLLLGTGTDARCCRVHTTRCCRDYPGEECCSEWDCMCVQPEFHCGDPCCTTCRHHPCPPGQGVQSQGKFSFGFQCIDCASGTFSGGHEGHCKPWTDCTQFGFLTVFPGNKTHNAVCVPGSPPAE
Method: (§1) FIG. 13. A dose-response of various antibodies was incubated on various receptors, members of Tumor Necrosis Factor Receptor family, then detected with Streptavidin coupled with Horseradish Peroxidase enzyme. […] Each data point is the mean of duplicate values except for control curves that were performed in simplicate.
(§2) The experiment was conducted following the same protocol than previously described. […] These molecules were all coated at 2 μg/ml in PBS overnight at 4° C.

[2] = target: rat OX40-Fc (rat); assay: ELISA on coated rat OX40-Fc
Sequence of rat OX40-Fc (rat) (chain, as listed by the source limits assumed): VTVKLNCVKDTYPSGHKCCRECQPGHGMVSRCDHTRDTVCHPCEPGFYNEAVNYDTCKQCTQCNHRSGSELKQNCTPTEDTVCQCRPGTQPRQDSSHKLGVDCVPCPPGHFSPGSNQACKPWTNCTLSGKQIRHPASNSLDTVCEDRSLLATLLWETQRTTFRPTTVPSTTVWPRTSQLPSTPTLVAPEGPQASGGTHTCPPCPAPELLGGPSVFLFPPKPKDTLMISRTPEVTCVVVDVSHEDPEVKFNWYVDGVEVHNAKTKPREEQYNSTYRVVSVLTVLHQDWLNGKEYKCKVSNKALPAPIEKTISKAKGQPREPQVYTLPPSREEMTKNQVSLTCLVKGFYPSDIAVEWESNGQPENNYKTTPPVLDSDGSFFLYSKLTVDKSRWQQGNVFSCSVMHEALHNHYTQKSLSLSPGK
Method: (§3) These constructs were expressed in HEK293-EBNA1 cells and purified using protein A. Then, human and rat OX40-Fc were tested in ELISA and Biacore to determine antibody cross-reactivity. For the ELISA, 96 well-microtiter plates (Costar USA, distributor VWR AG, Nyon, Switzerland) were coated with 100 μl of recombinant human or rat OX40-Fc at 2 μg/ml in PBS. Plates were incubated overnight at 4° C. and were then blocked with PBS 2% BSA (Bovine Serum Albumine, PAA Laboratories, Pasching, Austria) at room temperature (RT) for one hour. The blocking solution was removed and the purified antibodies were added at 10 μg/ml in PBS 2% BSA. The plates were incubated at RT for 1 hour, then washed 5 times with PBS 0.01% Tween-20 (Sigma-Aldrich Chemie GmbH, Buchs, Switzerland). […] Plates were incubated for 1 hour at RT, washed 5 times with PBS 0.01% Tween-20 and the TMB substrate (Bio-rad Laboratories AG, Reinach, Switzerland) was added to the plates and the reaction stopped after 5 minutes by adding H₂SO₄. Absorbance was then read at 450 nm by a microplate reader (Biotek, USA; distributor: WITTEC AG, Littau, Switzerland). Biacore experiments were specifically conducted with Hexa-hzG3V9 and Hexa-hz1D10v1 which are dAb-Fc fusion proteins. […] Binding of human and cyno OX40-Fc molecules was determined by successively injecting these proteins on the 4 flow-paths (flow-path 1 and 3 being used as references) at a concentration of 200 nM and a flow rate of 30 uL/min for 240 seconds. Regeneration between the two injections was done using 3M MgCl2, at 30 uL/min for 60 seconds. Using these two approaches, human/rat OX40 binding was assessed (table 16).

[3] = target: T2, recombinant DR6 molecule (R&D) (UniProt O75509 42-349, limits assumed); assay: direct ELISA on coated recombinant DR6, detection streptavidin-HRP, absorbance 450 nm [panel DR6]
T2 sequence (looked up): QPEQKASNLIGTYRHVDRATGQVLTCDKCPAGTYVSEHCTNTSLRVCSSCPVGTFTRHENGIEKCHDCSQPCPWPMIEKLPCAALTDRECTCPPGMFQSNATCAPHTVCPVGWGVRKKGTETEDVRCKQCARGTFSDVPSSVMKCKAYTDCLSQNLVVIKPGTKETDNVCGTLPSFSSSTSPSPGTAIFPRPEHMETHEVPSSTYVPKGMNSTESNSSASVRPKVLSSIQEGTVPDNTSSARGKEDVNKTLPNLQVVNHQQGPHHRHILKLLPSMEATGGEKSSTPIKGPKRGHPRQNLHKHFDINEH
Method: as §1, §2

[4] = target: recombinant CD40 molecule (R&D) (UniProt P25942 21-193); assay: direct ELISA on coated recombinant CD40, detection streptavidin-HRP, absorbance 450 nm [panel CD40]
Sequence of recombinant CD40 molecule (R&D) (P25942 21-193 limits assumed): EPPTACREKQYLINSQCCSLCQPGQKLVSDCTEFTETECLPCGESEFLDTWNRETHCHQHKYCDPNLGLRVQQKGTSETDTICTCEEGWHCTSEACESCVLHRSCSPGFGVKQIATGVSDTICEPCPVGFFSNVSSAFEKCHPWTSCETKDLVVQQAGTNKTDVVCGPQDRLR
Method: as §1, §2

[5] = target: T3, human OX40 on cells (human, UniProt P43489 29-277); assay: flow cytometry on JURKAT-NFkB-OX40 cells, detection anti-human Fc PE, geometric mean of fluorescence intensity
T3 construct: whole, on cells; also called OX40 on HPB-ALL cells
T3 sequence (looked up): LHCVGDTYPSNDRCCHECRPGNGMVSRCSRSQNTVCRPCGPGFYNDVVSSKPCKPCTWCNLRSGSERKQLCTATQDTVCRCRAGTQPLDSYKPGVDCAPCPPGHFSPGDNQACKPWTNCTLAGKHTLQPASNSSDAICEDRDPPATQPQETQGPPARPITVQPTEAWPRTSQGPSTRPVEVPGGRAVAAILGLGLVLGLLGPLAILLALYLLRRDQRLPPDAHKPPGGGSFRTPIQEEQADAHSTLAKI

[6] = target: T4, human OX40-Fc (human); assay: ELISA on coated human OX40-Fc, antibody 10 µg/ml
T4 construct: also called recombinant human OX40-Fc; human OX40 (HHHH)
Method: as §3

[7] = target: T5, recombinant DR3 molecule (R&D) (UniProt Q93038 25-199, limits assumed); assay: direct ELISA on coated recombinant DR3, detection streptavidin-HRP, absorbance 450 nm [panel DR3]
T5 sequence (looked up): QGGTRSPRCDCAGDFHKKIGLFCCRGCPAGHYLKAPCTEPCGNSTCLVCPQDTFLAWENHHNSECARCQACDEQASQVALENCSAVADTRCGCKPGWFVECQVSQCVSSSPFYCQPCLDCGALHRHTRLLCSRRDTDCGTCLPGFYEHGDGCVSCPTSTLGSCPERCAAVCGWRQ
Method: as §1, §2

[8] = target: T6, chiOX40R HHRH-Fc (human/rat chimera; human); assay: SPR, chimera immobilised (3000 RU), fragment injected at 200 nM
T6 construct: also called chiOX40R-Fc HHRH; chiOX40R OX40 HHRH-Fc
T6 sequence (chain, as listed by the source): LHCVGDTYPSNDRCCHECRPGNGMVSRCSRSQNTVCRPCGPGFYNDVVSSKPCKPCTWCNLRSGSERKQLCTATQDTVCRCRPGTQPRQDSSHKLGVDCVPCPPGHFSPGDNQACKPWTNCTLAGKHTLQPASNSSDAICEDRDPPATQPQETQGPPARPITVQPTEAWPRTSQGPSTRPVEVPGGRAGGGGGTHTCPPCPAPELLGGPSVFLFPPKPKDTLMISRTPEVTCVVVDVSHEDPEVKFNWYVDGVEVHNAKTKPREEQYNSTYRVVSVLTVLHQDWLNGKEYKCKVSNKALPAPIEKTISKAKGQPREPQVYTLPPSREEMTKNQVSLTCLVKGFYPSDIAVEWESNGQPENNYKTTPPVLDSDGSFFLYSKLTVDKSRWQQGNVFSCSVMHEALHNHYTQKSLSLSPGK
Method: A second injection was then performed using HBS-EP buffer for 3 min followed by 5 min of dissociation. Regeneration between the injections was done using glycine pH1.5 buffer for 1 min (FIG. 21 and table 23).

[9] = target: T7, recombinant human OX40-his protein (human, UniProt P43489 29-214); assay: direct ELISA on coated OX40-his
T7 construct: Secreted via the native signal peptide, which lies within residues 1-214; also called Human OX40R-His; histidine tagged human OX40 receptor extracellular domain
T7 sequence: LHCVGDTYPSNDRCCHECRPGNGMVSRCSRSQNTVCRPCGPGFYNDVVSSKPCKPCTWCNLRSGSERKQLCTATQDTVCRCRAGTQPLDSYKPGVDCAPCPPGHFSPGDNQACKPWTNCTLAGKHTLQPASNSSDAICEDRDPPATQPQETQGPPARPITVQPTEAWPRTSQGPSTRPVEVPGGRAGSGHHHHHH
Method: Plates were incubated overnight at 4° C. and were then blocked with PBS 2% BSA (Bovine Serum Albumine, PAA Laboratories, Pasching, Austria) at room temperature (RT) for one hour. […] Absorbance was then read at 450 nm by a microplate reader (Biotek, USA; distributor: WITTEC AG, Littau, Switzerland).

[10] = target: T3, human OX40 on cells; assay: cell-based or functional assay
[11] = target: B5; assay: SPR, antibody captured by anti-human IgG Fc, hsOX40_CRD_Avi_His injected
Method: (§4) Dilution series of hsOX40_CRD_Avi_His (SEQ ID NO: 159) were then injected.

[12] = target: pab1949 scFv fused in C-terminus (Fc fragment after digestion); assay: SPR, Fc-scFv fragment captured by anti-human IgG Fc, OX40-CRD-Avi-his injected
Method: The antibody/protease mixture was incubated over night at 37° C. […] After each binding event, the surface was regenerated with 10 μl of MgCl2 (3M) buffer. Experimental data were processed using a 1:1 Langmuir model with local Rmax. The dissociation time was about 7 min.
as §4

B1: 2H6 IgG1 (antibody)
heavy: not shown
light: DIQLTQSPSSLSASVGDRVTITCRASESVDNYGISFMNWFQQKPGKAPKLLIYAASNQKSGVPSRFSGSGSGTDFTLTISSLQPEDFATYFCQQSKEVPLTFGQGTKVEIKRTVAAPSVFIFPPSDEQLKSGTASVVCLLNNFYPREAKVQWKVDNALQSGNSQESVTEQDSKDSTYSLSSTLTLSKADYEKHKVYACEVTHQGLSSPVTKSFNRGEC
B1: no binding (tested: 10 µg/ml) [1]; no binding (tested: 10 µg/ml) [2]; no binding (tested: 10 µg/ml) [3]. The binding result [4] was “no binding (tested: 10 µg/ml)”, the “EC50 (read off the curve)” value [5] was about 0.2 µg/mL and the binding result [6] was “binds”. B1: no binding (tested: 10 µg/ml) [7].

B2: Fc-7H11 scFv/2H6 Fab (other)
heavy 1: HTCPPCPAPEAAGGPSVFLFPPKPKDTLMISRTPEVTCVVVDVSHEDPEVQFKWYVDGVEVHNAKTKPREEQYNSTFRVVSVLTVLHQDWLNGKEYKCKVSNKALPAPIEKTISKTKGQPREPAVYTLPPSREEMTKNQVKLVCLVTGFYPSDIAVEWESSGQPENNYYTTPPMLDSDGSFSLVSWLNVDKSRWQQGNIFSCSVMHEALHNRFTQKSLSLSPGGGGGTQVQLVQSGAEVKKPGASVKVSCKASGYTFTRYYMHWVRQAPGQCLEWMGWIYPGEGSTKYAQKFQGRVTMTRDTSISTAYMELSRLRSDDTAVYYCAREYGNYDYWGQGTLVTVSSGGGGSGGGGSGGGGSDIVMTQSPDSLAVSLGERATINCKSSQSLLNSGNQKNYLAWYQQKPGQPPKLLIYGASTRESGVPDRFSGSGSGTDFTLTISSLQAEDVAVYYCQNDHSYPYTFGCGTKLEIL
heavy 2: HTCPPCPAPEAAGGPSVFLFPPKPKDTLMISRTPEVTCVVVDVSHEDPEVKFNWYVDGVEVHNAKTKPREEQYNSTYRVVSVLTVLHQDWLNGKEYKCKVSNKALPAPIEKTISKAKGQPREPEVATFPPSRDELTKNQVTLVCLVTGFYPSDIAVEWESNGQPENNYKTDPPLLESDGSFALSSRLRVDKSRWQQGNVFSCSVMHEALHNHYTQKSLSLSPGGGGGTEVQLVESGGGLVQPGGSLRLSCAVSGYSITSDYAWNWIRQAPGKGLEWMGYISYSGSTAYNPSLKSRITISRDTSKNTFYLQMNSLRAEDTAVYYCARGPYNYLAYWGQGTLVTVSSASTKGPSVFPLAPSSKSTSGGTAALGCLVKDYFPEPVTVSWNSGALTSGVHTFPAVLQSSGLYSLSSVVTVPSSSLGTQTYICNVNHKPSNTKVDKKVEPKSC
light: DIQLTQSPSSLSASVGDRVTITCRASESVDNYGISFMNWFQQKPGKAPKLLIYAASNQKSGVPSRFSGSGSGTDFTLTISSLQPEDFATYFCQQSKEVPLTFGQGTKVEIKRTVAAPSVFIFPPSDEQLKSGTASVVCLLNNFYPREAKVQWKVDNALQSGNSQESVTEQDSKDSTYSLSSTLTLSKADYEKHKVYACEVTHQGLSSPVTKSFNRGEC
notes: N-terminal Fabs removed by digestion; also called Fc-2H6 Fab/7H11 scFv; purified digestion product of Tetra-20
Work on B2 yielded a response units [8] of 100 RU.

B3: mouse 2H6 antibody (hybridoma 2H6) (antibody, V domains shown)
VH: DVQLQESGPGLVKPSQSLSLTCTVTGYSITSDYAWNWIRQFPGNKLEWMGYISYSGSTAYNPSLKSRISITRDTSKNQFFLQLNSVTTEDTATYYCARGPYNYLAYWGQGTLVTVSS
VL: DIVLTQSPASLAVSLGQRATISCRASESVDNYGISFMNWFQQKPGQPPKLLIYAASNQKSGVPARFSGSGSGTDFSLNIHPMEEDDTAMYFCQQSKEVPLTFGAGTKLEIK
notes: also called mouse antibody 2H6
B3: binds [9].

B4: pab1949 IgG1 (antibody, V domains shown)
VH: EVQLVESGGGLVQPGGSLKLSCAASGFTFSGSAMHWVRQASGKCLEWVGRIRSKANSYATAYAASVKGRFTISRDDSKNTAYLQMNSLKTEDTAVYYCTSGIYDSSGYDYWGQGTLVTVSS
VL: not shown
With B4 the binding result [2] was “no binding (tested: 10 µg/ml)”, the “% donor responder (>2), SEB assay, IL-2 release” value [10] was 80% and the “Mean, normalized IL-2 release, SEB assay” value [10] was 4.74. For the same binder, the Kd [11] was 304 nM.

For B5, the Kd [12] was 460 nM.
